Experimental data from paper PMC10811340.

Experiments:
[1] = target: Milano Short Tail Fiber (STF), gp31 (Agrobacterium tumefaciens bacteriophage Milano); test: cryo-EM structure; baseplate junction of purified native Milano virions in the extended state, single particle analysis with C3 symmetry, ~3.2 Å; distal parts of the receptor-binding proteins and the garland only rigid-body fitted with AlphaFold models
[2] = target: Milano Tail Spike Protein (TSP), gp124 (Agrobacterium tumefaciens bacteriophage Milano); test: as above
[3] = target: Milano tail tube protein, gp21 (Agrobacterium tumefaciens bacteriophage Milano); test: cryo-EM structure; extended (pre-attachment) tail of purified native Milano virions; curved tail segments reconstructed with no imposed symmetry; the straight baseplate-proximal segment was extracted from the baseplate junction structure

Substance: Milano Short Tail Fiber (STF), gp31 (natural protein)
- stoichiometry N [1]: 3

Substance: Milano Tail Spike Protein (TSP), gp124 (natural protein)
- stoichiometry N [2]: 3

Substance: Milano tail tube protein, gp21 (natural protein)
- stoichiometry N [3]: 6
